Data published in article PMC2655680.
Like-named read-outs stand apart in the source and are kept apart here.

Tests used:
[1] = target: PNK-FHA (FHA domain of human polynucleotide kinase 3'-phosphatase, amino acids 1-109) (human) (UniProt Q96T60); experiment: ITC
[2] = target: PNK-FHA (FHA domain of human polynucleotide kinase 3'-phosphatase, amino acids 1-109) (human) (UniProt Q96T60); experiment: ITC; remark: listed apart in the source

Substance | Kd [1] [µM] | stoichiometry N [1] | Kd [2] [µM]
XRCC1 peptide YAGSTDENpTDSE, phosphorylated on Thr523 | 13.5 | – | –
XRCC1 peptide YAGpSTDENpTDSE, phosphorylated on Ser518 and Thr523 | 24.2 | – | –
XRCC1 peptide YAGpSpTDENpTDSE, phosphorylated on Ser518, Thr519 and Thr523 | – | 0.46 | –

The remaining substances from weak to strong by Kd [1], led by results:

Kd [1] [µM] | stoichiometry N [1] | Kd [2] [µM] | Substance
10.6 | – | – | XRCC1 peptide YAGSpTDENTDSE, phosphorylated on Thr519
1.23 | 0.51 | – | XRCC1 peptide YAGpSpTDENTDSE, phosphorylated on Ser518 and Thr519
0.76 | 0.51 | 0.7 | XRCC1 peptide YAGSpTDENpTDSE, phosphorylated on Thr519 and Thr523
